Experimental findings from the nanobody polyreactivity screen of Harvey et al. (2022) are described below.

This series is described as follows: yeast display, Sf9 membrane polyspecificity reagent, FACS + sequencing; frameworks hold sequencing errors. The procedure, abridged: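 Genes from sorted yeast were amplified by colony PCR, read by MiSeq 2 × 250 sequencing and filtered on CDR length. These cells carried a synthetic nanobody library in Saccharomyces cerevisiae BJ5465 and were sorted by FACS into low and high (top ~1%) gates on anti-HA and streptavidin fluorescence. Polyreactivity is labelled according to the gate of origin.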
As to “QVQLEESGGGLVQAGGSLRLSCAASGFTFERNAMGWYRQAPGKERELVAAISWSGGSTYYADSVKGRFTISRDNAKNTVYLQMNSLKPEDTAVYYCAAYQWGYWYGYRMDYWGQGTQVTVSS”, the “polyreactivity (PSR sort gate)” value is reported as “high polyreactivity”. Next, “QVHLVESGGGLVQAGGSLRLSCAASGLIFARNAMGWYSQAPGKEREMVAAISRSGSTNYADSVKGRFTISRDNAKNTVYLQMNSLKPEDTAVYYCAADHARYLGFPRVDYWGQGTQVTVSS”: “low polyreactivity”; “QVQLVESGVGLVQARGSLRLSCAASGSIFRRNAMGWYRQAHGKERELVAAISASGGRTYADSVKGRFTISRDNSKNTVYFQMKSLNPEDKAVYYCAARCYCSSRFDYWGLGTQVTVSS”: “high polyreactivity”. Next, “QVHLVESGGVLVQAGGSLRLSCAASGRIFSYYAMGWYRQAPGKEREMVAAISWTVGSTYYADSVKGRFTISRDNAINTVYLQMNSLYPEDTAVFYCAAAYGWSWYRYDYWGQGTQVTVSS”: “high polyreactivity”. With “QVQLVVSGGGLVQAGGSLRLSCAASGRIFWFNAMGWYRQAPGKEREFVATITYRGGSTYYADSVKGRFTISRDNAKNTVYLQMNSLLPEDTAVYYCAASVSYRRYHRFGYWGQGTQVTVSS”, the “polyreactivity (PSR sort gate)” value is reported as “high polyreactivity”. As to “QVQLVESGGGLVQAGGSLRLSCAASGSIFKPYAMGWYRQAPGKERELVAAINRGGTSTYYADSVKGRFTISRDNAKNTVYFQMNSLKPEDTAVYYCAAPNRYSVPMYYWGQGTQVTVSS”, the “polyreactivity (PSR sort gate)” value is given as “low polyreactivity”. Take “QVQLVESGRGLVQAGGRQRLSSAASGTTFGRYAMGWTRQAPGKQRELVAAISESDGSTYYADSVKGRFTISRDNAKNTVYLQMNSLTPEDTSVYYCAAEWTHYWWYQYDYWGQGTQVTVSS”: the “polyreactivity (PSR sort gate)” value is recorded as “high polyreactivity”. As to “QVQLVESGGGLVQAGGSLRLSCAASGITFAYYAMGWYRQAPGKERELVAVITSGGRTNYADSVKGRFTISRDNAKNTVYLQMNSLKPEDTAVYYCAAYRSSKTLRLGYYYWGQGTQVTVSS”, the “polyreactivity (PSR sort gate)” value was “high polyreactivity”. Next, “QVQLVESGGGLVQAGGSLRLSCAASGFTFIPNAMGWYRQAPGKERELVADITWSGGTTYYADSVKGRFTISRDNAKNTVYFQMNSLKPEDTAVYYCNADYLFYAFDYWGQGTQVTVSS”: “low polyreactivity”.

As for “QVQLVESGGGLVQAGGSLRLICAASGSTFELYAMGWYRQAPGKEREFVAAITYDSTYYADSVKGRFTISRDNAKNTVYLQMNSLKPEDTAVYYCAAAYWHYYYGWDMYYWGQGTQVTVSS”, the “polyreactivity (PSR sort gate)” value is “high polyreactivity”.

“QDQLVESGGGLVQAGGILRLSSSASGFTFAYYAMGWYRQSTGKERQLVAAISSRGGSTYYADTVKGRFSISRDNAKNTVYLQMNILKPEDTAVYYCAAEFGLWPYEYGYCGQGTQVTVSS”: the “polyreactivity (PSR sort gate)” value is on record as “high polyreactivity”. Next, “QVQLVESGGGLVQAGGSLRLSCAASGRTFRYNAMGWYRQAPGKERELVASIRRGGSTNYADSVKGRFTISRDNAKNTVYLQMNRLKPEDTAVYYCAAGGYYWGQGTQVTVSS”: “high polyreactivity”; “QVQLVESGGGLVQAGGSLRLSCAASGSIFGAYAMGWYRQAPGKERELVAAISGSGTSTYYADSVKGRFTISRDNAKNTVYLQMYSLKPEDTAVYYCAADGTYFYIYLGDRFDYWGQGTQVTVSS”: “low polyreactivity”. Next, “QVQLVESGGGLVQAGGSLRLSCAASGRIFINDMGWYRQAPGKERELVAAIRSDGSTNYADSVKGRFTISRDNAKNTVYLQMNSLKPEDTAVYYCNVDGYFLFVRGYEYWGQGTQVTVSS”: “low polyreactivity”; “QVQLVESGGGLVQAGGSLRLSCAASGTTFRANAMGWYRQAPAKERELVAAITSGGSTNYADSVKGRFTISRDNAKNTVYLQMNSLKPEDTAVYYCAKETYYGTDNFGQVGGEMDYWGQGNQVTVSS”: “low polyreactivity”. With “QVQLVESGGGLVQAGGSLRLSCAASGFTFRVNAMGWYRQAPGKERELVAAITYSGGSTYYADSVKGRFTISRDNAKNTVYLQMNSLKPEDTAVYYCNKARWNSWLYGYHYRGLRSYDYWGQGTQVSVSS”, the “polyreactivity (PSR sort gate)” value is “high polyreactivity”.

Turning to “QVQLVESGGGLVQAGGSLRLSCAASGSTFFRNAMGWYRQAPGKERELVAAISGSGNTYYADSVKGRFTISRDNAKNTVYLQMNSLKPEDTAVYYCADDVVYWYFHYDYWGQGTQVTVSS”, the “polyreactivity (PSR sort gate)” value was “low polyreactivity”. The entry for “QVQLQESGGGLVQAGGSLRLSCAASGSIFNVVDMGLYRQAPAKEREFVATIGEGGNTYYADSLKGSFTISRDNAKNTVYLQMNSLKPEDTAVYFYAVVLGTSFRYTYWGQGTQVTVSS” is “low polyreactivity”; for “QVQLVESGGGLVQAGGSLRLSCAASGSTFSANAMGWYRQAPGKERELVASISRGGGSTYYADSVKGRFTISRDTAKNTVYLQMNSLKPDDTAVYYCAAVYYRRISQGDTQTYYQYNYWGQVTQVTVSS” it is “high polyreactivity”; for “QVQLEESGGGLVQAGGSLRLSSAASGSTFCWYAMGGYRKEPGKERELVAAISIGGSTKYADSVKGRLTISRDNAKNSVYLQMNRMKPEYSAVYYCAAEVSYHYVPYGYWGQGTQVTVSS” it is “low polyreactivity”. In the case of “QVQLVESGGGLVQAGGSLRLSCSASGFIFRFYGMGWYRQAPGKERELVASIRRSGGSTYYADSVKGRFTISRDNAKNSVYLQMNSLKPEDTAVYDCAARWYVYVHFERYYWGQGTQVTVSS”, the “polyreactivity (PSR sort gate)” value is “high polyreactivity”. Take “QVQLVESGGGLVQAGGSLRLSCAASGRTSFGYAMGWYRQAPGKERELVAVISIGGTTYYADSVKGRFTISRDNAKNTVYLQMNSLKPEDTAVYYCAATPSNATGFLSYDYWGQGTQVTVSS”: the “polyreactivity (PSR sort gate)” value is “low polyreactivity”. The entry for “QVQLVESGGGLVQAGGSLRLSCAASGRTFYYYAMGWYRQAPGKERELVAAISWSGGSTYYADSVKGRFTISRDNAKNTVYLQMNSLKPEDTAVYYCAARLPENSFGLYYYWGQGTQVTVSS” is “high polyreactivity”. Next, “QVQLVESGGGLVQAGGSLRLSCASSGITFSFYVMGWYRQAPGKERELVAAISRGGSTYYADSVKGRFTISRDNANNTVYLQMNSLKPEDSAVYYCAAVRLSRVYYWGQGTQVTVSS”: “high polyreactivity”; “QVQLVESGGGLVQAGGSLRLSCAASGRIFYDYDMGWYRQAPGKERELVAAISYGGGTTYYADSVKGRFTISRDNAKNTVYLQMTSLKPEDTAVYYCAAEYASGSYDEYDYWGQGTQVTVSS”: “low polyreactivity”. The entry for “QVQLVESGGGLVQAGGSLRLSCAASGSIFRYYAMGWYRQEPGKERELVAAISWDGGTTYYADSVKGRFTISRDNAKNTVYLQMNSLKPEDTGVYYCNVEFPLSSYGYDYWGQGTQVTVSS” is “low polyreactivity”; for “QVQIVESGGGLVQAGGSLRLSCAASGITFYGYAMGWYRQAPGKERELVAVITSSRSSTYYADSVKGRFTISRDNAKNTFFLQMNSLKPEDTEVYYCNPRPGRRSLRSRTYDYWGQGTQVTVSS” it is “high polyreactivity”. On to “QVQLGESGGGLVQAGGSLRLSCAASGSTFAKYAMGWYRQAPGKERELVAAISSSGTCTYYADSVKGRFTISRDNAKNTVYLQMNSRKPEDTAVYYCAASYRNRYIAFYYWGQGTQVTVSS”, for which the “polyreactivity (PSR sort gate)” value is on record as “low polyreactivity”. Turning to “QVQLVESGGGLVQAGGSLRLSCAASGSIFAGYAMGWYRQAPGKERELVAAISSSGGRTYYADSVKGRFTISRDNAKNTVYLQMNSLKPVDTAVYYCAVSTYEEEYWGQGTQVTVSS”, the “polyreactivity (PSR sort gate)” value is “high polyreactivity”. Next, “QVQLVESAAGLVLAGGSLRLSCAASGSIFRFYAMGWSRQAPGQERELVAGITLSGASTYYADSVKGRFTISRDNAKNTVYLQMNSLKPEDTAVYYCAKRYRLDGFYYWGQGTQVTVSS”: “high polyreactivity”; “QVQLVESGGGLVQAGGSLRLSCAASGSILYWYAMGWYRQAPGKERELVAAITSSGDSTDYADSVKGRFTISRDNAKKTVYLQMNILKPEDSAVYYCNVQPVYADHFTEFDYCGQGTQVTVSS”: “low polyreactivity”; “QFQLVESGGGLVQAGGSLRLSCAASGRIFGRYSRGLYRQAPGKERELVAAITWLGTTYYADSVKGRFTISRDNAKNTVYLQMNSLKPEDTAVYYCATVVLLRIWGGYWGQGTQVTVSS”: “high polyreactivity”. Next, “QVQRVESGRGLVQAGGSLRLRCAASGNIFPWSAMGWSRQAPGKERELVAAITSGGGSTYYGDSVKGRFTISRDNAKNTVYLQMNRLKPEDTAVYYCNAESAFVSYYSEDYDYWGQGTQVTVSS”: “low polyreactivity”; “QVQLVESGGGLVQAGGSLRLSCAASGRIFPGNPMGWYRQAPGKERELVAGISFSGGRTYYADSVKGRFTISRDNAKNTVYLQMNSLKPEDTAVYYCAADAQAPPGGFKEYDYWGQGTQVTVSS”: “low polyreactivity”.

In the case of “QVQLVESGGGLVQAGGSLGLTCAASGFILAQNAMGWYRQAPGKERELVAAISRRGGRTSYADSVKGRFTISRDYAKNTVYLQMNSLKPEDTAVYYCAALPPRASSDAGGWYVAEDYWGQGTQVTVSS”, the “polyreactivity (PSR sort gate)” value is on record as “high polyreactivity”. For “QVQLVESGGGLVQAGGSLRLSCAASGSIFYDNAMGWYRQAPGKERELVASIRYSGVRTYYADSVKGRFTISRDNAKNTVYLQMNSLKPEDTAVYYCAADVYRQFYPFKSDYWGQGTQVTVSS”, the “polyreactivity (PSR sort gate)” value is “high polyreactivity”. Next, “QVQLVESGGGFDQAGGSLRLSCAASGITFYDNVMGSYIQAPGKERELVAAITSGGSTNYSDSVKGRFTISRANAKNTVYLQMNSLKPEDTAVYYCAATPYGIGYDYWGQGTEVTVSS”: “low polyreactivity”.

Consider “QVQLVESGGGLVQAGGSLRLSCAASGRIFSRYAMGWYRQAPGKERELVAAISCNGCSTYYADSVKGRFTISRDNAKNTVYLQMNSLKPEDTAVYYCAAYRPGPYAAYGYWGQGTQVTVSS”, for which the “polyreactivity (PSR sort gate)” value is given as “high polyreactivity”. Next, “QVQLVESGGGLVQAGCSLRLSCAASGFTFGSNEMGWYRPAPGKLRELVAAINYSGVRTYYADSVKGRFTISRDKAMNNVYLQMKSLKPEETAVDFCAKTRSKPISFDYWGQGTQVTVSS”: “high polyreactivity”; “QVQLVESGGGLVQAGGSLRLSCAASGSTFYYYTMGWYRQAPGKERELVARITRSGGTTYYADSVKGRFTISRDNAKNTVYLQMNSLKPEDTAVYYCAARRYGYTSITWYDYWGQGTLVTVSS”: “high polyreactivity”; “QVQLQESGGGLVQAGGSLRLSCAASGTITVLYKMVWFRQAPGKEREFVASINYGTSTYYADSVKGRFTVSRDSAKNTVYLQMNSLKPEDTAVYYCAAAYRWQDVYRYWGQGTQVTVSS”: “low polyreactivity”.
